Data on two proteins can be found in publication PMC9504171, “Revealing a New Family of D-2-Hydroxyglutarate Dehydrogenases in Escherichia coli and Pantoea ananatis Encoded by ydiJ” (Microorganisms, 2022).

Substrate in series [1]: O=C(O)CC[C@@H](O)C(=O)O
The experiment in a line: purified protein. The series is classed as biochemical, Escherichia coli. The note with it: 200 μM phenazine ethosulfate, 100 μM DCIP, 50 mM Tris-HCl pH 8.0, 25 °C.

Substrate in series [2]: O=C(O)CC[C@@H](O)C(=O)O
The series is described as follows: purified protein. The series is classed as biochemical, Pantoea ananatis. The note with it: 200 μM phenazine ethosulfate, 100 μM DCIP, 50 mM Tris-HCl pH 7.5, 25 °C.

B1: D2HGDHEc (YdiJ, E. coli) (Escherichia coli K-12) (protein)
chain: MIPQISQAPGVVQLVLNFLQELEQQGFTGDTATSYADRLTMSTDNSIYQLLPDAVVFPRSTADVALIARLAAQERYSSLIFTPRGGGTGTNGQALNQGIIVDMSRHMNRIIEINPEEGWVRVEAGVIKDQLNQYLKPFGYFFAPELSTSNRATLGGMINTDASGQGSLVYGKTSDHVLGVRAVLLGGDILDTQPLPVELAETLGKSNTTIGRIYNTVYQRCRQQRQLIIDNFPKLNRFLTGYDLRHVFNDEMTEFDLTRILTGSEGTLAFITEARLDITRLPKVRRLVNVKYDSFDSALRNAPFMVEARALSVETVDSKVLNLAREDIVWHSVSELITDVPDQEMLGLNIVEFAGDDEALIDERVNALCARLDELIASHQAGVIGWQVCRELAGVERIYAMRKKAVGLLGNAKGAAKPIPFAEDTCVPPEHLADYIAEFRALLDSHGLSYGMFGHVDAGVLHVRPALDMCDPQQEILMKQISDDVVALTAKYGGLLWGEHGKGFRAEYSPAFFGEELFAELRKVKAAFDPHNRLNPGKICPPEGLDAPMMKVDAVKRGTFDRQIPIAVRQQWRGAMECNGNGLCFNFDARSPMCPSMKITQNRIHSPKGRATLVREWLRLLADRGVDPLKLEQELPESGVSLRTLIARTRNSWHANKGEYDFSHEVKEAMSGCLACKACSTQCPIKIDVPEFRSRFLQLYHTRYLRPLRDHLVATVESYAPLMARAPKTFNFFINQPLVRKLSEKHIGMVDLPLLSVPSLQQQMVGHRSANMTLEQLESLNAEQKARTVLVVQDPFTSYYDAQVVADFVRLVEKLGFQPVLLPFSPNGKAQHIKGFLNRFAKTAKKTADFLNRMAKLGMPMVGVDPALVLCYRDEYKLALGEERGEFNVLLANEWLASALESQPVATVSGESWYFFGHCTEVTALPGAPAQWAAIFARFGAKLENVSVGCCGMAGTYGHEAKNHENSLGIYELSWHQAMQRLPRNRCLATGYSCRSQVKRVEGTGVRHPVQALLEIIK
notes: 1018 residues; calculated 113,248 Da; homotetramer ~440 kDa
With B1, in “purified protein [1]”, the Km worked out at 83 ± 5 µM, the kcat came out at 13.9 s⁻¹ and the kcat/Km is 170000 M⁻¹ s⁻¹.

B2: D2HGDHPa (YdiJ, P. ananatis) (Pantoea ananatis AJ13355) (protein)
chain: MIPQISQAPGLIQRVLTFLETLKAQGFTGDTATSYADRLSLSTDNSIYQLLPDAVLFPRSTADVALIARLAGEAAFSSLVFTPRGGGTGTNGQSLNQGIIVDMSRHMNRILEINTEQRWVRVEAGVVKDQLNAYLKPFGFFFSPELSTSNRATLGGMINTDASGQGSLVYGKTSDHVLGLRAVLLGGDILDTRPVPTALAENLAQTPTPEGRIYQQVLTRCREHRELILEKFPKLNRFLTGYDLRHVFSDDMQTFDLTRLLCGAEGTLAFISEARLDITPLPKVRRVVNIKYDAFDSALRNAPLMVEAQALSVETVDSKVLNLAREDIVWHSVRELITAIPDKEMLGLNIVEFAGDDAGQIDRQITQLCARLDTLMTQQQGGVIGYQLCDDLDGIERIYNMRKKAVGLLGNAKGRAKPIPFVEDTAVPPEHLADYIVEFRALLDSHGLSYGMFGHVDAGVLHVRPALDMCDPHQEMMMKQISDEVVALTARYGGLLWGEHGKGFRAQYSPAFFGETLFNELRRIKAAFDPHNRLNPGKICTPFDSEAAMMQVDATKRGSYDRQIPLQVRETWRGALECNGNGLCFNFDARSPMCPSMKITRNRIHSPKGRATLTREWLRLLAEQGADPVMLEKKLPESSLSLRALISRMRNTWYANKGEYDFSHEVKEAMSGCLACKACSTQCPIKIDVPAFRSRFLQLYHTRYLRPLSDHLVAGVESYAPLMAKAPGVFNFFLKQPWATSFSKTHIGMVDLPLLSSPTLKQQLSGHPAMNMTLEQLEALSETQRAQKVLVVQDPFTSFYEAKLVHDFIRLIEKLGYQPVLLPFSPNGKAQHVKGFLQRFARTASKTADFLNRVAKLGMPMVGIDPATVLCYRDEYHQMLGEARGDFNVLLVHEWLHQALQEREVQVTSGEAWYLFAHCTEVTALPGTPGQWQAIFSRFGAKLENINVGCCGMAGTYGHESQNLENSLGIYALSWHPQLQKLPRQRCLATGFSCRSQVKRVEGNGMRHPLQALLELI
notes: 1018 residues; calculated 113,453 Da; homotetramer ~440 kDa
In the case of B2, in the series “purified protein [2]”, the Km came to 208 ± 10 µM, the kcat came out at 9.7 s⁻¹ and the kcat/Km worked out at 50000 M⁻¹ s⁻¹.

As a reminder, the Km is the concentration of substrate that gives half-maximal velocity. As a reminder, the kcat is the number of substrate molecules converted per active site and unit of time at saturation. For orientation: kcat/Km means the turnover number divided by the Michaelis constant.
